B1: Antibody 1 (antibody, V domains shown)
VH: QVQLVQSGAEVKKPGSSVRVSCKTSGGTFSSYAVTWVRQAPGQGLEWMGGIIGMFGTTNYAQKFQGRLTITADEMTSTAYMELSSLRSEDTAVYYCARGSYYYETTLDYWGRGTL
VL: ETTLTQSPGTLSLSPGERATLSCRVSQSVSSNYLAWYQQKPGQAPRLLIYGASSRATGIPDRFSGSGSGTDFTLTISRLEPEDFAVYYCQQYGTSPRAFGHGTKVEIKR
B2: Antibody 2 (antibody, V domains shown)
VH: QVQLVQSGAEVKKPGSSVKVSCKTSGGTFSSYAVTWVRQAPGQGLEWMGGIIGMFGTTNYAQKFQGRVTITADELTSTAYMELSSLRSEDTAVYYCARGSYYYESSLDYWGRGTL
VL: ETTLTQSPATLSVSPGERATLSCRASQSVSRNLAWYQQKPGQAPRLLIYGASSRATGIPDRFSGSGSGTDFTLTISRLEPEDFAVYYCQQYGSSSITFGQGTRLEIKR
B3: Antibody 3 (antibody, V domains shown)
V domain 1: EVQLVQSGAEVKKPGSSVKVSCKTSGGTFSSYAVTWVRQAPGQGLEWMGAIIGMFGTTNYAQKFQGRVTITADELTSTAYMELSSLRSDDTAVYYCARGSYYYESSLDYWGKGTL
V domain 2: QSVLTQPPSVSGAPGQRVTISCGGSRSNIGAGYDVHWYQQFPGTAPKVVIYGNNNRPSGVPDRFSGSKSGTSASLAITGLQAEDEANYYCQSYDTNLGGSIFGGGTQVTVL
B4: Antibody 4 (antibody, V domains shown)
VH: QVQLQESGPGLVKPSETLSLTCTVSGYSFDSGYYWGWLRQPPGKGLEWIGSIYHSRNTYYNPSLKSRVTISVDTSKNQFSLQLSSVTAADTAVYYCARGTWYSSNLRYWFDPWGKGTL
VL: NFMLTQPHSVSESPGKTVTISCTGSGGNIARNYVQWYQQRPGSAPVTVILEDDKRPSGIPDRFSGSIDRSSNSASLTISGLRTEDEALYYCQSYDDSDLVVFGGGTKLT

Target: H3 hemagglutinin of influenza A/Hong Kong/68 (influenza A virus H3 A/Hong Kong/68)
Experiment: cell-based or functional assay

| Binder | Minimum inhibitory concentrations required to neutralize virus |
| --- | --- |
| B1 | > 333 µg/mL |
| B2 | > 333 µg/mL |
| B3 | > 333 µg/mL |
| B4 | > 333 µg/mL |
